Experimental data reported in patent US20230055235.

Experiments:
[1] = target: T1, PD-L1 (programmed death-ligand 1) (Homo sapiens?) (UniProt Q9NZQ7); experiment: inhibition; conditions: PD-1/PD-L1 binding ELISA
[2] = target: T1, PD-L1 (programmed death-ligand 1); experiment: filter; conditions: 37 C

T1 sequence (Q9NZQ7 19-238): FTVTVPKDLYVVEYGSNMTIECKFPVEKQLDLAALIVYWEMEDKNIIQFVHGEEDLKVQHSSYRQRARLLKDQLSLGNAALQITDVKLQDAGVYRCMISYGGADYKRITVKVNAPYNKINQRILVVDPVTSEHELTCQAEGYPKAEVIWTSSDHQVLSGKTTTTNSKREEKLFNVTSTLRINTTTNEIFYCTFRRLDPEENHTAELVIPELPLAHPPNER

Sequence | IC50 ([1]; Bz-dU at every n) | further results
AAGTTTTTGATTGTACCTTAGTGC [PL009] | 4.6 nM | –
GCCTGATGAAAAGTTTTTGATTGTACCTTAGTGCACTCAACAGTGCAGCC [PL016] | 3.3 nM | –
GCCTGTGTATGCCGCACGATCGCCCTATTTTGCGAGTTTACTCACAGCC [PL005] | 12.6 nM | –
GAGTGACCGTCTGCCTGCCATTTCCTGCTTGCTCTTCCTCCTTTATTTTTCACCTTTCAGCCACACCACCAGCC [PL029] | – | Kd ([2]; Bz-dU at every n, Bmax 0.10): 243 nM
GAGTGACCGTCTGCCTGTTAAGCGGCTAAGTTTTTGATTGTACCTTAGTGCCCTTACCAGCCACACCACCAGCC [PL010] | – | Kd ([2]; Bz-dU at every n, Bmax 0.06): 0.93 nM
GCCTGATGAAAAGTTTTTGATTGTACCTTAGTGCACTCAACAGTGC [PL017] | 4 nM | –
GAGTGACCGTCTGCCTGTGTATGCCGCACGATCGCCCTATTTTGCGAGTTTACTCACAGCCACACCACCAGCC [PL002] | 31.3 nM | Kd ([2]; Bz-dU at every n, Bmax 0.05, 40 mM HEPES, 102 mM NaCl, 5 mM KCl): 0.18 nM
ATGAAAAGTTTTTGATTGTACCTTAGTGCACTCAACAGTG [PL019] | 15.3 nM | –
ATGAAAAGTTTTTGATTGTACCTTAGTGC [PL004] | 7 nM | –
GCCTGATGAAAAGTTTTTGATTGTACCTTAGTGC [PL003] | 6.3 nM | –
GAGTGACCGTCTGCCTGTGTATGCCGCACGATCGCCCTATTTTGCGAGTTTAACTGACAGCCACACCACCAGCC [PL028] | – | Kd ([2]; Bz-dU at every n, Bmax 0.06): 1.36 nM
ATGCCGCACGATCGCCCTATTTTGCGAGTTTAC [PL007] | – | IC50 ([1]; Bz-dU at every n, anti-PD-L1 antibody 1.2 nM): 4.7 nM
TGTATGCCGCACGATCGCCCTATTTTGCGAGTTTACTCA [PL006] | 9.6 nM | –
GAGTGACCGTCTGCCTGATGAAAAGTTTTTGATTGTACCTTAGTGCACTCAACAGTGCAGCCACACCACCAGCC [PL001] | – | Kd ([2]; 5-(N-benzylcarboxamide)-2'-deoxyuridine (Bz-dU) at every n, Bmax 0.07): 1.1 nM; IC50 ([1]; 5-(N-benzylcarboxamide)-2'-deoxyuridine (Bz-dU) at every n): 6 nM; IC50 ([1]; 5-(N-benzylcarboxamide)-2'-deoxyuridine (Bz-dU) at every n, repeat experiment): 10.5 nM
